This passage reports Kd results from doi:10.1101/2025.03.18.643923, “Widely used CaMKII regulatory segment mutations cause tight actinin binding and dendritic spine enlargement in unstimulated neurons” (bioRxiv, 2025).

This assay has as its target T1, Human α-actinin-2 EF3-4 (positions 827-894) (human, UniProt P35609 827-894).
T1 construct: α-actinin-2, human, third and fourth EF hands, positions 827-894; also called α-actinin-2 EF hands 3-4; source: E. coli Rosetta pLysS, purified (Ni-NTA, Glutathione Sepharose, Tev cleavage, Superdex 75); not shown: His, N-terminal, cleaved; GST, N-terminal, cleaved
The assay can be described thus: ITC; MicroCal PEAQ, 25 °C, 25 mM HEPES pH 7.5, 150 mM NaCl; syringe 500 μM CaMKIIα peptide, cell 50 μM EF3-4; single site binding model. The settings on record: both partners purified.

T1 sequence (P35609 827-894): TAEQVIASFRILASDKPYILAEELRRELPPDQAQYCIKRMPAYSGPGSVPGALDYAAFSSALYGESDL

B1: CaMKIIα 290-309 peptide WT (peptide, UniProt P11275 290-309, looked up)
peptide: LKKFNARRKLKGAILTTMLA
notes: CaMKIIα regulatory segment, residues 290-309; Probably a synthetic peptide; also called WT CaMKIIα 290-309; N-terminally shifted regulatory segment peptide (WT)
In general, Kd refers to the equilibrium constant for the complex coming apart. Molecule B1 showed a Kd of 3.46 ± 0.08 µM.

B2: CaMKIIα 290-309 peptide AA (T305A/T306A) (peptide, UniProt P11275 290-309, looked up)
peptide: LKKFNARRKLKGAILAAMLA
notes: CaMKIIα regulatory segment, residues 290-309; Probably a synthetic peptide; also called AA CaMKIIα 290-309; N-terminally shifted regulatory segment peptide (AA)
With B2, the dissociation constant (Kd) worked out at 0.146 ± 0.012 µM.

B3: CaMKIIα 294-315 peptide T305A/T306A (peptide, UniProt P11275 294-315, looked up)
peptide: NARRKLKGAILAAMLATRNFSG
notes: Probably a synthetic peptide; also called AA isolated regulatory segment
B3 registered a Kd of 14.7 ± 1.2 µM. Compared with the last molecule, the Kd is about 100-fold higher.

B4: CaMKIIα 294-315 peptide T306A (peptide, UniProt P11275 294-315, looked up)
peptide: NARRKLKGAILTAMLATRNFSG
notes: Probably a synthetic peptide; also called T306A regulatory segment
B4: binding was put at a Kd of 19.8 ± 1.9 µM.

B5: CaMKIIα 294-315 peptide T305A (peptide, UniProt P11275 294-315, looked up)
peptide: NARRKLKGAILATMLATRNFSG
notes: Probably a synthetic peptide; also called T305A regulatory segment
In the case of B5, the Kd stood at 19.4 ± 0.7 µM.
